According to article doi:10.1101/2024.12.03.626531, “Lineage–specific amino acids define functional attributes of the protomer-protomer interfaces for the Rad51 and Dmc1 recombinases” (bioRxiv, 2024):

Molecular target: the molecule itself
Test: cryo-EM structure; helical filament: ScDmc1 5 µM with 0.25 µM 96-mer ssDNA in HR buffer supplemented with 1.5 mM CaCl2, 30°C for 5 minutes; 8 mM CHAPSO added before freezing

B1: S. cerevisiae Dmc1 (natural protein, UniProt P25453 1-334, looked up)
chain: MSVTGTEIDSDTAKNILSVDELQNYGINASDLQKLKSGGIYTVNTVLSTTRRHLCKIKGLSEVKVEKIKEAAGKIIQVGFIPATVQLDIRQRVYSLSTGSKQLDSILGGGIMTMSITEVFGEFRCGKTQMSHTLCVTTQLPREMGGGEGKVAYIDTEGTFRPERIKQIAEGYELDPESCLANVSYARALNSEHQMELVEQLGEELSSGDYRLIVVDSIMANFRVDYCGRGELSERQQKLNQHLFKLNRLAEEFNVAVFLTNQVQSDPGASALFASADGRKPIGGHVLAHASATRILLRKGRGDERVAKLQDSPDMPEKECVYVIGEKGITDSSD
notes: Dmc1 meiotic recombinase, Saccharomyces cerevisiae, full-length wild type; Helical filament on a 96-nt ssDNA with ATP; 6.35 monomers per turn; Expressed as 6XHis-ScDmc1; no removal of the tag is described; also called ScDmc1; yeast Dmc1; source: E. coli BL21 (DE3) Rosetta2, purified (Talon resin, heparin sepharose)
binding result: binds
